Assay results from patent US7029674B2.
Each block holds one substance with its values, some of them ahead of it.

Key:
[1] = molecular target: human PD-1 on human T cells or Jurkat T cells (human)
[2] = molecular target: human PD-1 on human T cells or Jurkat T cells (human); remark: listed apart in the source
[3] = molecular target: human PD-1 on human T cells or Jurkat T cells (human); remark: listed apart in the source
[4] = molecular target: human PD-1 gamma 2a fusion protein (human PD-1 extracellular region fused to murine Ig gamma2a hinge-CH2-CH3) (human; murine) [IgG part: P01863]; experiment: ELISA: biotinylated PD-L1Fc on immobilized human PD-1Fc, streptavidin-HRP
[5] = molecular target: PD-1 on T cells (species not stated in these experiments)
[6] = molecular target: PD-1 on T cells (species not stated in these experiments); remark: listed apart in the source
[7] = molecular target: PD-1 on T cells (species not stated in these experiments); remark: listed apart in the source
[8] = molecular target: murine PD-1 on mouse T cells (Balb/c LN T cells, DO11.10 CD4+ T cells, TCR transgenic LN T cells) (murine) (UniProt Q02242)

Substance: human PD-L1.Ig (extracellular region of human PD-L1 fused to murine Ig gamma2a hinge-CH2-CH3) (from UniProt P01863) (Fc fusion)
proliferation (3H-thymidine) of human CD4+ T cells, 96 hours [1]: 69 % decrease | IL-10 secretion (ELISA) by human CD4+ T cells [2]: 60 % decrease | interferon-γ secretion (ELISA) by human CD4+ T cells [2]: 80 % decrease | proliferation of human CD4+ T cells, suboptimal anti-CD3 (1 µg/ml) with soluble anti-CD28 [3]: 80 % reduction | ED50 [4]: 0.108 µg/mL

% CD69+ T cells (flow cytometry), 72 hours [5]: 42 % CD69+ | % IL-2R+ (CD25) T cells (flow cytometry), 79 hours [6]: 15 % IL-2R+ | % apoptotic T cells (propidium iodide and annexin positive), 72 hours [7]: 12 % apoptotic
Substance: PD-L1.Fc (species not stated in these experiments) (Fc fusion)

percentage of dividing cells by propidium iodide staining (DNA content), day 4 (% dividing cells) [8]: 11
Substance: mPD-L1.Fc fusion protein
